What was measured:
[1] = molecular target: ERα (UniProt P03372 1-595); assay: EMSA
[2] = molecular target: T1, RORα (UniProt P35398 1-523); assay: EMSA
T1 sequence: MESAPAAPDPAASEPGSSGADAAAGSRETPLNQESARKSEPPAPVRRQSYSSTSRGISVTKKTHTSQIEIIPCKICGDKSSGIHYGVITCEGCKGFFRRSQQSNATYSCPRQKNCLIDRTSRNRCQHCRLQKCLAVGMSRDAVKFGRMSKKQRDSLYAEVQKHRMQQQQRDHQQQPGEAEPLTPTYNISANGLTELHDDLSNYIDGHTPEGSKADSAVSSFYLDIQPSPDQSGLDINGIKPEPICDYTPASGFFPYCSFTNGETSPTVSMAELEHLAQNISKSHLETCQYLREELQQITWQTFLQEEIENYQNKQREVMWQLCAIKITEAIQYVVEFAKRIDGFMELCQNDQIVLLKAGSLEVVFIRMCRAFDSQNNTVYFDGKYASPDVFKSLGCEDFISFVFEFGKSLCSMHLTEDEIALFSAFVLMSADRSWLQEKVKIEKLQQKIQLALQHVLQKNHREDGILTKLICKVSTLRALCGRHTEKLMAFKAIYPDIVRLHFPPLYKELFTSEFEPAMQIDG

ERα, sequence (P03372 whole entry): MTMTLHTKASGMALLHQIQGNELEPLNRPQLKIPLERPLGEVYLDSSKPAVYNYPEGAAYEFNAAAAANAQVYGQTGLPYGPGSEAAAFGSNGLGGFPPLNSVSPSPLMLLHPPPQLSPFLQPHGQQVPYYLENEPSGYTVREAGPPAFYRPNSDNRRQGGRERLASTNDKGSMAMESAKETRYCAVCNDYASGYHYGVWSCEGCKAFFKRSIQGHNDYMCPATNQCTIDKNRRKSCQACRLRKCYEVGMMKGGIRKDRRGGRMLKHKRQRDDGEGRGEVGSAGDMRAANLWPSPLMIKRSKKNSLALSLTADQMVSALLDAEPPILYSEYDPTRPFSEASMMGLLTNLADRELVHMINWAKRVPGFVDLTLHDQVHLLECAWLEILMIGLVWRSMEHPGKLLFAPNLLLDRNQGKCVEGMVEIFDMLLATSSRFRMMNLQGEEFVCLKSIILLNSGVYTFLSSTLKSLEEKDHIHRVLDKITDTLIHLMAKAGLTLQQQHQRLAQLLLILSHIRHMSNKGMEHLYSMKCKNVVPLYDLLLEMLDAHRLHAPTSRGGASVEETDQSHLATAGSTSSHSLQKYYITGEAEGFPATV

B1: SULT1E1 ERE (dsDNA)
DNA 1: GAGGGTCAAGATAAACATT
DNA 2: AATGTTTATCTTGACCCTC
[1]
  binding result: binds

B2: SULT1E1 RORE (dsDNA)
DNA 1: AGAGAATTGAGGTCACAG
DNA 2: CTGTGACCTCAATTCTCT
[2]
  binding result: binds

— article PMC8344073
